The text below walks through data of paper PMC7291142.

The subject of the data set is RSV Gag∆PR (Rous sarcoma virus (Prague C strain)). Kind of data set: FA salt titration.

As for MΨ-A197C, the equilibrium dissociation constant (Kd) came out at 9.8 mM.
With MΨ-G218C the figure was 700 mM; with MΨ-∆L3, 31 mM.
Regarding MΨ-WT, the Kd stood at 0.23 mM.
As to MΨ-∆SL-B, the Kd amounted to 0.096 mM.

The Kd is a measure of binding affinity in units of concentration.
